Results as given in the DeepSol protein solubility set.

Test: soluble on expression in E. coli; label from the status in PepcDB or PDB records

Row | Sequence | soluble on expression in E. coli
1 | SLGRTRRKNKPITIKSYVVSSDTWQLGCIEYGSHSMSGQRAYNEDRVCVVPSVDVCTREGCCKAHTKAMFYAVYDGHNGEEAVNYVQEHLHKNIFRSRSFHGDVSKAIRAGFIATDNALRSMVMEKIRGEGFEDQDISPFSSGTTACTAVVRDMQLYIGNLGDSRCVLSRAGRSHLITVDHSCRTNADEQQRVREDGGHYDTDGYLNGAIGVSRAFGAFDKNCGQKLSGLTCEPQIHKETLRREDEFMIIACDGVFDVISCQEAVNCPPERLQHKDKRPADWTPTTPGLGEEKAATAEARPSSSSRSPLAATQSGASAGDRTGVSG | not soluble
2 | MADYKVKDISLAEWGRKAIELAENEMPGLMELRREYGPSQPLKGAKIAGCLHMTVQTAVLIETLKALGAELRWSSCNIFSTQDNAAAAIAKTGVPVFAWKGETDEEYEWCIAQTVKGFSGDGLPNMILDDGGDLTNLVIDRYPELVPKIFGISEETTTGVKNLYKRLSKGNLPISAINVNDSVTKSKFDNLYGCRESLVDGIKRATDVMIAGKTCCVCGYGDVGKGCAAALRAFGARVVVTEVDPINALQASMEGYQVALVEDVMADAHIFVTTTGNDDIITSDHFPHMRDDAIVCNIGHFDTEIQVGWLEANAKEHVEIKPQVDRYTMENGRHIILLAKGRLVNLGCASGHPSFVMSNSFTNQVLAQIELWSNRDNGKYPRGDKAGVFFLPKALDEKVAALHLAHVGAKLTKLTPKQAEYINCPVNGPFKPDHYRY | soluble
3 | MILLIGATGNIGLPIVKSLQKKGAEVRLLVHNEKSSAKIQALGQMEIFIGDFRNDSDLRESMKGCSSVFHVVPPFTKDEAEIGYRVIENARHAGVEHIVFNSVLHPQLRKMEHHAQKLLVEEAVIESGLAFNIIQPAMLMQNLLMVWRTIRENGIYPVISSPDKKMSLIDSEDIGEAVANILTDPSLRNATFELAGSDLLTYKEMALIISEELNQPVKVVPVDDKGREELARKQGMSSYAIHAFLKMAKHYDEHGFSGSNPLVLTSILKRPPNSYRDFIRRLIAEDGGI | not soluble
4 | MTEQTFSIREAVPTDADQLLSVMSKIGSETPYLVMDERGMAMSTTELAENLATLYESPNNVLLVALAGEAIIGTASVSASSKKRMEHIGEIGISILKEYWGYGLGSILMEELIRWAHESHVIRRLELTVQDRNQRAIHVYKKLGFETEAIMPRGAKTDQGEFLDVHLMRLLID | not soluble
5 | SDLQTRFRPPGAEISIIGLSASLAELVPPSNIENAPQIPRGEDGFFERVGNATREMLVYVGSVVRFIKECVLVFKLGINRRKNVNWTTVSNIATRAGADAVP | not soluble
6 | GSDTPSNLMGKQQWKALVEEAIHSDWVKFRFQAAKNTWGKVFHNEVFSSIEKDGETYRANQYLFALEQLDATNIFDQYVIESMIKMLESGELNDPVAINIAQSSLSQPSFIRWTTNMLEKHSKVASKLHFEIPEECFIDHPHHTALLCNAIRQSGAEFGVDNYGRNFQSLEYIQEFRPNYVKLDYLFTHNLHDEKQKFTLTSISRTAHNLGITTIASRIETQIQLDFLTEHFVEVFQGFIVDKE | not soluble
7 | MSLNPKQVSQKLANKPKDRPIAFVSKPDSLTQCLTPVFTNSEGYVSVSDCEEAIDARYDVFSRIAWKLRDGWVCLSAENEKYNQGKRLILRPCVIDDKTQSFTIKDNMLYTPDLRFVVRIANGFLTLQKSQSKGAQSNLILHNMQEWLDTIATPAPLMQKGFIAWKFISPQGFDVYYLRNNESIKNDPQELYFNLENGIIAQYDSASAKMFCLTSKQNAKQDWNWASWEECLQQNLRENKAAPSKLNAQNWKLFMFADNDSAMLKDYLGNFLRVTKYGSNWGVPYTAKADYLAKDTNEGQTSYFQFRHDMQDWERFKNANLSDSLPTCPANGSYAKNLKASVKLPPSFVLTQEWKKRLWQIATTTDGVLERAGDCGVCLLHSYQMIAEMNEYTATPLESGGFFFDTAFGRNPFTSFRARYPMLAASLEQYRASNTPPGLSRSAVFAYAAQMYRAIALSLFPGHFWLSSEFATSDVTIRSALRDLFQQPAGTLWVVQMYYVARDGSFNGHGMPVLRTGDGIQFIPTNLTNMNYEGYERALSNSFAHNLREAYNVVTRNGTLNLYMLYSLRLREIYPNPINAFVSNNNCSGEGEDRRGTRNMPLSRFINQCASGRCVLQEGHHHHHH | not soluble
8 | MTKVYIENYGCARNRADGEIMAGLLLSSGYEIVEGEENADIVVVNSCAVKDPTEVKIARRIRELLDRGKKVIVTGCLPHVNPDAIDERVSAVLGVKSIDRIVQAVEYALRGEKLISVPDWRKRNLDKLDFPRLSPRGVHFILPIAEGCLNGCTYCATRSARGVLKSYSPEKIVEWVKWAIRQGYKEIWLSAEDTGCYGFDIGTNLAKLLDEITAIEGEFRIRVGMMNPNHVLKFLDELIEAYKDEKVYKFLHLPVQSGDNEILRRMGRTYTVEEFEEIVNAFRREFPDLNLHTDIIVGFPGESEEAFQRSLELIKRIKPDKVNVSRYSPRPGTIAAKWKQLPGWVVKERSRIMHRVRLQISYEINQRYVGRKVDILVHGEGKKGNVDAVTMNYKHIIIPRGEKGEFARAKVNGATSTYLLGEIVD | soluble
9 | MSLNPNVQECSFEETIEAHLFANGYASLPASDYDAALALFPTSVLTFVRATQLKEWAKLEALHGANTEATVLKDLTHWLDTHGTLAVLRNGFKCYGRTLRVAYFKPAHGMNPELAAQYAANRVGVIRQLRYSQRNTNELDLVLSINGIPVFTAELKNPMTGQTVTNAIAQYQHDRDHREPLFEFKRRALVHFAVDTEQVFMTTRLAGSATHFLPFNKGLDGGAGNPPDPAGRAYRTAYLWEEVWQRDSLLDIFARFIHLQVEEKRTDDGRKIKKETMIFPRYHQLRAVRELEDAARTEGPGHNYLVEHSAGSGKSNTIGWLAHRLASLHNESDHKVFDSVIVITDRRVLDRQLQDTIYQFEHRQGVVQKIDEDSRQLAEALTNSVPIIISTLQKFPFVARQLARMAEERREGADGILPTRRCAVIIDEAHSSQSGETATDLKEVLGGHVLREEAARYAVDEGVDNLDELYRSMAKRGRQTNLSFFAFTATPKHKTLAVFGRDEAGKAGQPFHRYTMSQAIEEGFIMDVLKNYTTYATYYKLVKASEDDPNVERKQAAKALARFMRLHPYNIAQKTEVMVEHFNAVTRHKVGGKAKAMVVTGSRLEAVRYKLAFDAYIREKGYSWIKTLVAFSGEVVDDELPGKTWTEVGMNGGIKEGVLPEKFDSSEYQVLLVAEKYQTGYDQPLLHTMYVDKRLAGIQAVQTLSRLNRMHPLKEDTFVLDFVNDRQEIKEAFKQYHEGAEMGEEADPNQMYAIKAELDASGIYLLEEMQRFIGIYFKPKQRQSPADHQAMNEGHHHHHH | not soluble
10 | VEGAVKTEPVDLFHPGFLNSSNYRIPALFKTKEGTLIASIDARRHGGADAPNNDIDTAVRRSEDGGKTWDEGQIIMDYPDKSSVIDTTLIQDDETGRIFLLVTHFPSKYGFWNAGLGSGFKNIDGKEYLCLYDSSGKEFTVRENVVYDKDSNKTEYTTNALGDLFKNGTKIDNINSSTAPLKAKGTSYINLVYSDDDGKTWSEPQNINFQVKKDWMKFLGIAPGRGIQIKNGEHKGRIVVPVYYTNEKGKQSSAVIYSDDSGKNWTIGESPNDNRKLENGKIINSKTLSDDAPQLTECQVVEMPNGQLKLFMRNLSGYLNIATSFDGGATWDETVEKDTNVLEPYCQLSVINYSQKVDGKDAVIFSNPNARSRSNGTVRIGLINQVGTYENGEPKYEFDWKYNKLVKPGYYAYSCLTELSNGNIGLLYEGTPSEEMSYIEMNLKYLESGANK | soluble
11 | MSRGQIIHSGHFMCSNPHDDLVQDEDEEDVEVDVVEDDDKSMEASSSVHHKNKALDEKPVTFYKFGVGKTQSIAIDVSLNKLNKCIKVAYNKMTTPKWKDFKGLRLHWKQRVRLNNVIWRAYYIEFRKKQPEKPKKPFCYFAVPDDDTTHQKIEGSIVEGMYWKRKMEGVCAQYKRWRIRSKHNLVTDKGGMVATCSSTSVSSMTGELKRKRKHTVPKETIESKLRSYEPPVKLQRSQTPKHTISDEFAWDFDDLDNVFTDDFLNSLSEPYMFPDPRDVYSGNNADIMQPGLLPLQPTIEDIMMSLGDDMPDSPPFHNDRDTMRTPTNDQPSISAQQIPQMRRSASSSASLHQMQVAQAQAQSISQISQPSQQLQHQIQIQQPVAARPHEFMASSIMMDYRLMPTRQSSAITSQMLMLSQSASTLSSQPQYATSTHYSTNNSFLPIRNTMTNQHHLGHTSQHSPWNKQQQSNFLVSLPHQSHVERILNNQPPLVPPPSRSNLLPTQNDPYLPQFLQSTQPTPQPQSHDPMMAPSRSWWLDSPLTASVQSPLSVATPLPLANQTGPQTPLGQLIGSADNGFLFGGNNTPGGFKMSGTTSGVPTLSQRLEQPPISRTSTIFGNVENKPERIFTSLTSQNTPTPSPLDISSLSRLRTSSLNESWKMSHIVEGSPTYQAFAASVTTKPSILESPSTSGDISGPASVPVQASQHPPKIITPPSASSKRKEQEAAMAPLVNRQQSCDVNLLNGKMAVKVEEKSGRHYLPTTPTELKEVTKEEPLLMSAPSSVKSMRRQAPDSTLHPEERKRILHLHAEQNRRSALKDGFDQLMDIIPDLYSGGVKPTNAVVLAKSADHIRRLQAEKWDKTQKIDEAKAKIEKLNQKITSLQSNLPQSSAPSSSSQVDSKTSLETFFDRYVKEGAKKNWRFWVVSYLAEKLKFF | not soluble
12 | MGSDKIHHHHHHMKVSEFDYELPPELIAQEPVEPRDASRLMVLHRKTQRIEHRIFREIIEYLEPGDLLVLNVSKVIPARLYARKKTGASIEILLIERLEEGIWKCLVRPGQKVKKGTELVIDEDLSAVCLGRGEDGTRILKFQPQDDRLIFEKGRTPLPPYIKNEVPLERYQTVYAKEEGSVAAPTAGLHFTPELIEKLKKKGVQFAEVVLHVGIGTFRPVKVEEVEKHKMHEEFYQVPKETVRKLRETRERGNRIVAVGTTTVRTLETIARLPEQEEYVGKTDLFIYPPFEFKLVDALVTNFHLPRSTLLMLVAAFAGKDFVMEAYREAVKRRYRFFSFGDAMLIL | soluble
13 | MAHHHHHHMCKDKNEKKNYEHVNANEKNGYLASEKNELTKNKVEEHTYDYDYVVIGGGPGGMASAKEAAAHGARVLLFDYVKPSSQGTKWGIGGTCVNVGCVPKKLMHYAGHMGSIFKLDSKAYGWKFDNLKHDWKKLVTTVQSHIRSLNFSYMTGLRSSKVKYINGLAKLKDKNTVSYYLKGDLSKEETVTGKYILIATGCRPHIPDDVEGAKELSITSDDIFSLKKDPGKTLVVGASYVALECSGFLNSLGYDVTVAVRSIVLRGFDQQCAVKVKLYMEEQGVMFKNGILPKKLTKMDDKILVEFSDKTSELYDTVLYAIGRKGDIDGLNLESLNMNVNKSNNKIIADHLSCTNIPSIFAVGDVAENVPELAPVAIKAGEILARRLFKDSDEIMDYSYIPTSIYTPIEYGACGYSEEKAYELYGKSNVEVFLQEFNNLEISAVHRQKHIRAQKDEYDLDVSSTCLAKLVCLKNEDNRVIGFHYVGPNAGEVTQGMALALRLKVKKKDFDNCIGIHPTDAESFMNLFVTISSGLSYAAKGGCGGGKCG | soluble
14 | MGSDKIHHHHHHMKLCSVTKIWDKSAHNAFTDLALYRGKLYCVFREASAHVSPDGALRILCTDNDGQDWHSVALIEADFADLRDGKLVIEGDSLFLFGGAAMHEGKGEGMRSYCWQSDDGIHWSAPRALVKEREWLWRITPHKGYFYGIAYYCHEHDGYAALYKSDANTDFYPLVEKLSQAGYVNESGLVFDEEDKAICLLRRDPLWLTDERALLGESAPPYTQWHWQTANCRVGGPVTFLYQGQLYGVVRLYDGRVRTALVAIDRQSAQIAELLTLPSGGDTSYAGVVLSDNILMVSYYSSHEGDCAIYFAKIAL | not soluble
15 | SGIMNIILQDNVQEIEGVVVTGYQQIKNRVFTGAAASVKLDEIKLNGVSDVSRMLEGRIAGLSIQNVTGSFGAAPRINIRGGASIMGNVQPLWVIDGAVYEDLVSLTLDQLASGDAVTLISSAVAGLNASDIEDIQVLKDASATSIYGARALNGVIVITTRSGKRNA | not soluble
